Measured values taken from IntAct's records for PubMed 23213219.

B1: UL37 immediate early glycoprotein (Human cytomegalovirus (strain AD169) (HHV-5)), P16778 (parent)
chain: MSPVYVNLLGSVGLLAFWYFSYRWIQRKRLEDPLPPWLRKKKACALTRRSRHRLRRQHGVIDGENSETERSVDLVAALLAEAGEESVTEDTEREDTEEEREDEEEENEARTPEVNPIDAEGLSGLAREACEALKKALRRHRFLWQRRQRARMLQHNGPQQSHHAAVFCRVHGLRGFQVSVWLLLTLLWSTGHGVSVRCTYHGTDVNRTSNTTSMNCHLNCTRNHTQIYNGPCLGTEARLPLNVTFNQSRRKWHSVMLKFGFQYHLEGWFPLRVLNESREINVTEVHGEVACFRNDTNVTVGQLTLNFTGHSYVLRAIAHTSPFESYVRWEETNVTDNATSSENTTTVMSTLTKYAESDYIFLQDMCPRFLKRTVKLTRNKTKHNVTVTGNNMTTLPVWTPECKGWTYWTTLSVMWRNRRSALLRAKSRALGHWALLSICTVAAGSIALLSLFCILLIGLRRDLLEDFRYICRDEGSSSTKNDVHRIV

Variants of: B1
Conditions: with bax_human BAX

**Q.** How did the “effect of a mutation on the interaction” value turn out when MSPVYVNLLGSVGLLAFWYFSYRWIQRKRLEDPLPPWLRKKKACALTRRSRHRLRRQHGVIDGENSETERSVDLVAALLAEAGEESVTEDTEREDTEEEREDEEEENEARTPEVNPIDAEGLSGLAREACEALKKALREHRFLWQRRQRARMLQHNGPQQSHHAAVFCRVHGLRGFQVSVWLLLTLLWSTGHGVSVRCTYHGTDVNRTSNTTSMNCHLNCTRNHTQIYNGPCLGTEARLPLNVTFNQSRRKWHSVMLKFGFQYHLEGWFPLRVLNESREINVTEVHGEVACFRNDTNVTVGQLTLNFTGHSYVLRAIAHTSPFESYVRWEETNVTDNATSSENTTTVMSTLTKYAESDYIFLQDMCPRFLKRTVKLTRNKTKHNVTVTGNNMTTLPVWTPECKGWTYWTTLSVMWRNRRSALLRAKSRALGHWALLSICTVAAGSIALLSLFCILLIGLRRDLLEDFRYICRDEGSSSTKNDVHRIV [R139E] was run?
**A.** decreasing interaction strength

**Q.** Which “effect of a mutation on the interaction” value does the source give for MSPVYVNLLGSVGLLAFWYFSYRWIQRKRLEDPLPPWLRKKKACALTRRSRHRLRRQHGVIDGENSETERSVDLVAALLAEAGEESVTEDTEREDTEEEREDEEEENEARTPEVNPIDAEGLSGLAREACEALKKALRRHRFAWQRRQRARMLQHNGPQQSHHAAVFCRVHGLRGFQVSVWLLLTLLWSTGHGVSVRCTYHGTDVNRTSNTTSMNCHLNCTRNHTQIYNGPCLGTEARLPLNVTFNQSRRKWHSVMLKFGFQYHLEGWFPLRVLNESREINVTEVHGEVACFRNDTNVTVGQLTLNFTGHSYVLRAIAHTSPFESYVRWEETNVTDNATSSENTTTVMSTLTKYAESDYIFLQDMCPRFLKRTVKLTRNKTKHNVTVTGNNMTTLPVWTPECKGWTYWTTLSVMWRNRRSALLRAKSRALGHWALLSICTVAAGSIALLSLFCILLIGLRRDLLEDFRYICRDEGSSSTKNDVHRIV [L143A] here?
**A.** decreasing interaction strength

**Q.** How did the “effect of a mutation on the interaction” value turn out when MSPVYVNLLGSVGLLAFWYFSYRWIQRKRLEDPLPPWLRKKKACALTRRSRHRLRRQHGVIDGENSETERSVDLVAALLAEAGEESVTEDTEREDTEEEREDEEEENEARTPEVNPIDAEGLSGLAREACEALKKALRRHRFLWQERQRARMLQHNGPQQSHHAAVFCRVHGLRGFQVSVWLLLTLLWSTGHGVSVRCTYHGTDVNRTSNTTSMNCHLNCTRNHTQIYNGPCLGTEARLPLNVTFNQSRRKWHSVMLKFGFQYHLEGWFPLRVLNESREINVTEVHGEVACFRNDTNVTVGQLTLNFTGHSYVLRAIAHTSPFESYVRWEETNVTDNATSSENTTTVMSTLTKYAESDYIFLQDMCPRFLKRTVKLTRNKTKHNVTVTGNNMTTLPVWTPECKGWTYWTTLSVMWRNRRSALLRAKSRALGHWALLSICTVAAGSIALLSLFCILLIGLRRDLLEDFRYICRDEGSSSTKNDVHRIV [R146E] was run?
**A.** decreasing interaction strength
